Experimental data as given in PMC10321299.

Target: SpyCatcher-tagged ferritin
Assay: SDS-PAGE of the covalent conjugate; purified SC-FN and rePO-ST mixed in vitro overnight (12 hours) at 4 °C in molar ratios 1:8 to 1:28; isopeptide bond between SpyTag and SpyCatcher; new band on SDS-PAGE

## SpyTag-tagged rePO (recombinant PcrV-OprI with SpyTag at the C-terminus) (from UniProt G3XD49 28-294; P11221 25-83)
  proportion of conjugated ferritin: 70%
